According to patent publication US20090155164A1 (Amgen, published 2009):

Assays:
[1] = target: T1, cynomolgus monkey c-fms on primary bone marrow cells (cynomolgus monkey); test: cell-based or functional assay
[2] = target: T2, human c-fms, full length, on cells (human, UniProt P07333 20-972); test: cell-based or functional assay
[3] = target: T3, monomeric human c-fms (residues 1-512)-pHis (human, UniProt P07333 20-512); test: Biacore 3000, 25 C; mAb captured on goat anti-human IgG Fc, monomeric c-fms(1-512)-pHis analyte, 1:1 fit
T3 construct: Construct stated as residues 1-512; signal stated as amino acids 1-19 and left out; also called human c-fms (1-512).pHIS; monomeric c-fms
Method: (§1) Anti-c-fms 1.2 or 1.2 SM at 0.25 μg/ml was injected over goat anti-human IgG, Fcγ in one flow cell for 2 minutes at 10 μl/min to obtain a surface density of ˜47 RUs. Another flow cell with goat anti-human IgG, Fcγ alone was used as a reference surface. Each assay started with ten cycles of buffer as the analyte to stabilize the signal. […] Each complex was allowed to associate for 2 minutes, and dissociate for 5 minutes. The surfaces were regenerated after each c-fms or buffer injection with a 30-second pulse of 10 mM glycine HCl, pH 1.5 at 100 μl/min, followed by a 30-second injection of buffer.
(§2) Other anti-c-fms antibodies were tested in a similar manner, but changes were made to the protocol to account for differences in binding characteristics.
(§3) Data was double referenced by subtracting the reference surface responses to remove bulk refractive index changes, and then subtracting the averaged buffer blank response to remove systematic artifacts from the experimental flow cells.

[4] = target: T2, human c-fms, full length, on cells; test: inhibition of 125I-CSF-1 binding to AML-5 cells; competitor: 125I-CSF-1 (summary table)
Method: (§4) A saturation radioligand binding experiment was performed in conjunction with each inhibition assay in order to determine both a KD and […] for hCSF-1 binding to c-fms expressed on the surface of AML-5 cells. Mixtures were set up in 96-well round-bottom microtiter plates with total volumes of 150 μl/well. All reagents were diluted in binding media containing 0.2% sodium azide and experiments were conducted at 4° C. to minimize potential receptor internalization and shedding.
Both assays were incubated at 4° C. on a miniorbital shaker for 4 hours, the length of time needed to reach equilibrium as determined in time course experiments. Two 60 μl aliquots of each incubation mixture were transferred to chilled 400 μl polyethylene centrifuge tubes containing 200 μl phthalate oil and spun for 1.5 minutes in a 4° C. tabletop microfuge (Sorvall,) at 9615×g to separate cell associated ¹²⁵I-hCSF-1 from free ¹²⁵I-hCSF-1. The oil tubes were cut, and each cell pellet and supernatant collected in individual 12×75 mm glass tubes and loaded on a COBRA gamma counter (Packard Instrument Company) for cpm measurements. Cpm from duplicate aliquots taken from each well were averaged for analysis.
Mean K₁ values from 2 experiments were reported (see, TABLE 13).

[5] = target: T3, monomeric human c-fms (residues …); test: Biacore (summary table)
Method: as §1, §2, §3

[6] = target: T2, human c-fms, full length, on cells; test: inhibition of 125I-hCSF-1 binding to AML-5 cells, 4 C; competitor: 125I-hCSF-1
Method: as §4
For the saturation binding assay, ¹²⁵I-hCSF-1 was serially diluted 2-fold, starting at a concentration of ˜1.7 nM and going out 12 wells to a concentration of ˜1.5 pM. Nonspecific binding was measured at a single concentration of ¹²⁵I-hCSF-1 (˜80 pM, in triplicate) in the presence of a 1,000-fold molar excess of unlabeled hCSF-1, and assumed to be a linear function of the concentration of radiolabeled hCSF-1 present.

[7] = target: T1, cynomolgus monkey c-fms on primary bone …; test: cell-based or functional assay; remark: listed apart in the source
[8] = target: T2, human c-fms, full length, on cells; test: cell-based or functional assay; remark: listed apart in the source
[9] = target: T4, avidin-c-fms Ig-like 2 domain only fusion protein (chicken; human, UniProt P07333 85-223); test: FACS, biotin beads loaded with the avidin fusion protein; per the sheet's title 1 µg/mL anti C-FMS and 1 µg/mL mouse anti-human IgG Fc-gamma FITC secondary
T4 construct: Captured on biotin beads; also called Ig-like loop 2 alone (TEPG-AQIV); not shown: chicken avidin, N-terminal fusion partner from pCEP4-Avidin(N)

[10] = target: T2, human c-fms, full length, on cells; test: cell-based or functional assay; remark: listed apart in the source
[11] = target: T3, monomeric human c-fms (residues …); test: Biacore, monomeric c-fms
Method: The binding affinities of the somatic mutation corrected antibodies to monomeric c-fms protein were measured by surface plasmon resonance using a Biacore 3000 instrument.
The affinity of human c-fms (1-512). pHIS (Amgen) for the anti-c-fms mAbs was measured by Biacore. Experiments were conducted at 25° C. using a Biacore 3000 instrument (Biacore AB) equipped with a CM4 sensor chip. Sensor chips, amine coupling reagents (EDC (1-ethyl-3(3-dimethylaminopropyl)-carbodiimide hydrochloride), NHS (N-hydroxysuccinimide), and ethanolamine-HCl, pH 8.5), 10 mM sodium acetate, pH 5.5, HBS-EP (0.01 M HEPES pH 7.4, 0.15 M NaCl, 3 mM EDTA, 0.005% v/v Surfactant P20), and 10 mM glycine-HCl, pH 1.5 were purchased from Biacore AB. Bovine serum albumin (BSA, Bovuminar Standard Powder) was purchased from Serological Corporation. AffiniPure Goat Anti-Human IgG, Fcγ Fragment Specific was purchased from Jackson ImmunoResearch Laboratories.
as §2

T3 sequence (P07333 20-512): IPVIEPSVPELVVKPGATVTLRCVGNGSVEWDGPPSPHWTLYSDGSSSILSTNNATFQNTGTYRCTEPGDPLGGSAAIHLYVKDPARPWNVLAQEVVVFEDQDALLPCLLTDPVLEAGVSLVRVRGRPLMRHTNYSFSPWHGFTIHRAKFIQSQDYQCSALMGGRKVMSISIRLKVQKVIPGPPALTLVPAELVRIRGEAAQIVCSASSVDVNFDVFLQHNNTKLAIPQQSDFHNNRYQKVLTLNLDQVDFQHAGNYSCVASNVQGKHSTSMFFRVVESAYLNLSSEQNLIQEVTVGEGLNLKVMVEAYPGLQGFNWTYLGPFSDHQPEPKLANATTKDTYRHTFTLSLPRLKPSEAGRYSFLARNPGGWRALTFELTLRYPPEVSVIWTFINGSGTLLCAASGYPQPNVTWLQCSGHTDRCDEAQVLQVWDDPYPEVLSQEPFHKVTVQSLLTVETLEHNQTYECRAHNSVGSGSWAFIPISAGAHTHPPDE
T4 sequence (P07333 85-223 limits assumed): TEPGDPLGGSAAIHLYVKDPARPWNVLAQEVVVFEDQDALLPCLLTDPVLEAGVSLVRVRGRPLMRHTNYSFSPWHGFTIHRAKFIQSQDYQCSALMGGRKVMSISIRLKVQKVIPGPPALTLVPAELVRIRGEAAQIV
T2 sequence (P07333 20-972): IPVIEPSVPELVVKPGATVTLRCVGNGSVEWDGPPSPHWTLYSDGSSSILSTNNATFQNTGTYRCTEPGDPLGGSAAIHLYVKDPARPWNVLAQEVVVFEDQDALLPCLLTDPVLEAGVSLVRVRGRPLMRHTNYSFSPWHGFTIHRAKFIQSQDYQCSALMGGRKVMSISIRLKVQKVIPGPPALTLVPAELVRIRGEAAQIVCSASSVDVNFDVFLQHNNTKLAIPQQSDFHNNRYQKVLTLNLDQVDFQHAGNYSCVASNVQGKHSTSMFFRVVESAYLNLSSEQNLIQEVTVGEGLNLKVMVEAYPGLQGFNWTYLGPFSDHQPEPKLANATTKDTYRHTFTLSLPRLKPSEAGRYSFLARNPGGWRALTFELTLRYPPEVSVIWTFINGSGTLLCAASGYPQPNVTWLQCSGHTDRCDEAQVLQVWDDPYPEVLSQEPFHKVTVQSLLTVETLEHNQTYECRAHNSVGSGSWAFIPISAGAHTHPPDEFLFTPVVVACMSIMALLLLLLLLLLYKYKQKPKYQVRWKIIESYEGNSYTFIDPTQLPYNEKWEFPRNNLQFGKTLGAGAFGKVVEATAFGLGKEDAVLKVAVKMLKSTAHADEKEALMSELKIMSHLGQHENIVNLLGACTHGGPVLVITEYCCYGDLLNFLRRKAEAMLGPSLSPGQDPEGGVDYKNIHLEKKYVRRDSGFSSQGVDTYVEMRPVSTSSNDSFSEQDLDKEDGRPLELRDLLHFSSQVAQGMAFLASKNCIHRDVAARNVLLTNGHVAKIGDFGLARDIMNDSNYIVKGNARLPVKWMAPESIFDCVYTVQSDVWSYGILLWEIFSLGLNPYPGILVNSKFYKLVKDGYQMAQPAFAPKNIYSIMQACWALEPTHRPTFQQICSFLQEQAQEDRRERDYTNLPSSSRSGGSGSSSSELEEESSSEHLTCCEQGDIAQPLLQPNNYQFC

Binder	Cynomolgus Bone Marrow Proliferation IC50 [1]	AML-5 proliferation IC50 [2]	Kd [3]	koff [3]	kon [3]	Ki [4]	Kd [5]	Ki [6]	Cynomolgus bone marrow bioassay IC50 [7]	AML-5 bioassay IC50 [8]	binding result [9]	antibody concentration that reduced CSF-1-induced pTyr/c-fms to background, 293T/c-fms cells [10]	Kd [11]	antibody concentration that prevented CSF-1-induced pTyr/c-fms, 293T/c-fms cells [10]
anti-c-fms IgG2 clone 2.360 (parent form, PT) (antibody, V domains shown, N-terminal glutamine cyclized to pyroglutamic acid; C-terminal lysine absent, Recombinant human IgG2 kappa from COS/PKB cells) VH: QVQLVQSGAEVKKPGASVKVSCKVSGYTLTELSMHWVRQAPGKGLEWMGGFDPEDGETIYAQKFQGRVTMTEDTSTDTVYMELSSLRSEDTAVYYCATGVMITFGGVIVGHSYYGMDVWGQGTTVTVSS VL: DIQMTQSPSSLSASVGDRVTITCRASQGINNYLAWYQQKPGKVPQLLIYVASTLQSGVPSRFSGSGSGTDFTLTISSLQPEDVATYYCQKYNSGPFTFGPGTKVDIKR	0.067 nM	0.06 nM	0.535 nM	0.000667 s⁻¹	1.25e+06 M⁻¹ s⁻¹	~0.16 nM	0.535 nM	~0.16 nM	0.067 nM	0.06 nM	no binding (tested: 1 µg/mL)	1 µg/ml	0.535 nM	–
anti-c-fms IgG2 clone 1.2 (parent form, PT) (antibody, V domains shown, N-terminal glutamine cyclized to pyroglutamic acid; C-terminal lysine absent, Recombinant human IgG2 kappa from COS/PKB cells (hybridoma was IgG1); also called 1.2.1; Clone 1.2 PT) VH: QVQLVQSGAEVKKPGASVKVSCKASGYTFTSYGISWVRQAPGQGLEWMGWISAYNGNTNYAQKLQGRVTMTTDTSTSTAYMELRSLRSDDTAVYYCARESWFGEVFFDYWGQGTLVTVSS VL: not shown	0.078 nM	0.027 nM	0.516 nM	0.00198 s⁻¹	3.84e+06 M⁻¹ s⁻¹	0.0085 nM	0.516 nM	0.0085 nM	0.078 nM	0.027 nM	no binding (tested: 1 µg/mL)	0.1 µg/ml	0.516 nM	≥ 0.1 µg/ml
anti-c-fms IgG2 clone 1.109 (parent form, PT) (antibody, V domains shown, N-linked glycosylation site at Asn-28 in CDR1, reported as likely occupied; N-terminal glutamine cyclized to pyroglutamic acid; C-terminal lysine absent, Recombinant human IgG2 kappa from COS/PKB cells (hybridoma was IgG1)) VH: not shown VL: DIQMTQSPSSLSASVGDRVTITCQASQNISNFLDWYQQKPGKAPNLLIYDASDLDPGVPSRFSGSGSGTDFTFTISSLQPEDIATYYCQQYVSLPLTFGGGTKVEIKR	0.016 nM	0.027 nM	0.051 nM	0.000129 s⁻¹	2.54e+06 M⁻¹ s⁻¹	0.0135 nM	0.051 nM	0.0135 nM	0.016 nM	0.027 nM	no binding (tested: 1 µg/mL)	0.1 µg/ml	0.051 nM	≥ 0.1 µg/ml
